# Measurements taken from US20260184748A1, “COMPOSITIONS COMPRISING OCTADECANEUROPEPTIDES (ODN) AND SYNTHETIC DERIVATIVES THEREOF AND METHODS OF USE FOR MODULATION OF FOOD INTAKE, OBESITY, BODY WEIGHT, NAUSEA, AND EMESIS” (The Trustees of the University of Pennsylvania, priority 2022, published 2026).
# Entries after “also recorded” stand apart in the source; their conditions may differ.
# T1: RXFP3 (Homo sapiens, UniProt Q9NSD7)
# T1 sequence (Q9NSD7 1-469): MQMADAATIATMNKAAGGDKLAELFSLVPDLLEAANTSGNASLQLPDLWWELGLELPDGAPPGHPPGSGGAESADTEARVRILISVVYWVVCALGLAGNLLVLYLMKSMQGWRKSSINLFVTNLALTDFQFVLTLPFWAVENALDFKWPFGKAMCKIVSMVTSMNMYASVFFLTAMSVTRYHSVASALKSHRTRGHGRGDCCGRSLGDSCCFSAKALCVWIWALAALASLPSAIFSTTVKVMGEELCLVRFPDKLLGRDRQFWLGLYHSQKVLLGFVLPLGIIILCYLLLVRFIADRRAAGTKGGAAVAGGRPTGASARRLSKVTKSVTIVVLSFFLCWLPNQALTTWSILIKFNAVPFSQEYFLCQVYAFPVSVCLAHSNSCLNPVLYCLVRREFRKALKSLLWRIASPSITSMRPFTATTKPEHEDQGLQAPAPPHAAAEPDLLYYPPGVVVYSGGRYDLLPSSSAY
# T2: relaxin-3 receptor (Rattus norvegicus, UniProt Q5Y987)
# T2 construct: expressed a high level of the relaxin-3 receptor; from tissue; host or cells: rat brain, nucleus incertus (living animal)
# T2 sequence (Q5Y987 1-469): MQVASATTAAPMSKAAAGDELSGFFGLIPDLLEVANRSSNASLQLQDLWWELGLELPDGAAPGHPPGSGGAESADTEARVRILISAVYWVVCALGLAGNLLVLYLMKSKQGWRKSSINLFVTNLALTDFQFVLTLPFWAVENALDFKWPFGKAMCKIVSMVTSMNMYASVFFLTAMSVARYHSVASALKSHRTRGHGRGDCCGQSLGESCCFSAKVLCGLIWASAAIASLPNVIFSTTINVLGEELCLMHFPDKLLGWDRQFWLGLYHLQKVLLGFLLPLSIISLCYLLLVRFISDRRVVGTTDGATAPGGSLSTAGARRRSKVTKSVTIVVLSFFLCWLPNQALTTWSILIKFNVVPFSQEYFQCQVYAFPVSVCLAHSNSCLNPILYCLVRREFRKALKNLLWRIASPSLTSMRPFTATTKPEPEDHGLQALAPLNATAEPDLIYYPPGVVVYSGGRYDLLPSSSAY
# T3: C5aR1 (Homo sapiens, UniProt P21730)
# T3 sequence (P21730 1-350): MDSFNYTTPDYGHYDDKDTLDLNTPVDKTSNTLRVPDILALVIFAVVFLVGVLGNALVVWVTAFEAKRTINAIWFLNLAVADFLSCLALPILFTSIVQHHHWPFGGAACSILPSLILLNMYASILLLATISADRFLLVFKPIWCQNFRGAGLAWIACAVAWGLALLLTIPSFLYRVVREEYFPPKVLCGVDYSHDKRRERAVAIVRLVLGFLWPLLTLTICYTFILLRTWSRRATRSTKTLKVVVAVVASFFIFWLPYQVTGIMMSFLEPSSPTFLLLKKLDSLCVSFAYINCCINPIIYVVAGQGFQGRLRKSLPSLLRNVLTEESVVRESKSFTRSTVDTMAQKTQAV
# T4: CCR10 (Homo sapiens, UniProt P46092)
# T4 sequence (P46092 1-362): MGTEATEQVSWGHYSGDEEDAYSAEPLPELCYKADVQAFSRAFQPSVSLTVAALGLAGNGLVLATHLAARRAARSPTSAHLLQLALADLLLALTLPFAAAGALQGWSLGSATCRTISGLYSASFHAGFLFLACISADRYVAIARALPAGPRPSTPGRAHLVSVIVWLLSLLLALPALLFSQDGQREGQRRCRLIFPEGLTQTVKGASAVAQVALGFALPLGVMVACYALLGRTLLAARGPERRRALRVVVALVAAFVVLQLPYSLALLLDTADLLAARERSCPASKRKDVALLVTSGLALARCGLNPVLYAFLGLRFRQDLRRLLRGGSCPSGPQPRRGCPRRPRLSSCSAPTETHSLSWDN
# T5: CCR4 (Homo sapiens, UniProt P51679)
# T5 sequence (P51679 1-360): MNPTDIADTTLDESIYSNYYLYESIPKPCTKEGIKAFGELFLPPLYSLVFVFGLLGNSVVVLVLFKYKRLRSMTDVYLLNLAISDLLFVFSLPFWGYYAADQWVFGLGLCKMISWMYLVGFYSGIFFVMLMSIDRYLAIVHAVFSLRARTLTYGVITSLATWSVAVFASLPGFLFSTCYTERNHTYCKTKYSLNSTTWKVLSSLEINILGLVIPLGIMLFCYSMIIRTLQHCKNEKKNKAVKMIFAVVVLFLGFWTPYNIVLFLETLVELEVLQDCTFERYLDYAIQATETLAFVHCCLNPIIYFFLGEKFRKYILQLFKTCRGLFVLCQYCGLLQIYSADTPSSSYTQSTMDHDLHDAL
# T6: CCR9 (Homo sapiens, UniProt P51686)
# T6 sequence (P51686 1-369): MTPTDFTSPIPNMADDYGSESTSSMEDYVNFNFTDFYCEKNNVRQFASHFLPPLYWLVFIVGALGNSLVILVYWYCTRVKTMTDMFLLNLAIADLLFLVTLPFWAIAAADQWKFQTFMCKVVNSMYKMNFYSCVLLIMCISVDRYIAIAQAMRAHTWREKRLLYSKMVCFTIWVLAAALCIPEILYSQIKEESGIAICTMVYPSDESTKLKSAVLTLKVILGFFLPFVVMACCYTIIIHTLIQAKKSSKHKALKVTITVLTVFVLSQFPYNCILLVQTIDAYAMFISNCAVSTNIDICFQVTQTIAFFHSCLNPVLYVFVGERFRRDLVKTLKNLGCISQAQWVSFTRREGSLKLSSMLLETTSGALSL
# B1: recombinant DBI protein: Rat recombinant diazepam binding inhibitor (DBI) protein (LS-G136996, Lifespan Biosciences) (protein, UniProt P11030 2-87, looked up)
# Acyl-CoA-binding protein: SQADFDKAAEEVKRLKTQPTDEEMLFIYSHFKQATVGDVNTDRPGLLDLKGKAKWDSWNKLKGTSKENAMKTYVEKVEELKKKYGI
# B2: Relaxin-3: Recombinant human relaxin-3 (130-10, PreproTech); control agonist of RXFP3 (protein)
# chain 1: RAAPYGVRLCGREFIRAVIFTCGGSRWRRSDILAHEAMGDTFPDADADEDSLAGELDEAMGSSEWLALTKSPQAFYRGRPSWQGTPGVLRGSRDVLAGLSSSCCKWGCSKSEISSLC
# chain 2: B2 chain 1
# B3: EG VEGF: control agonist (protein)
# chain: AVITGACERDVQCGAGTCCAISLWLRGLRMCTPLGREGEECHPGSHKVPFFRKRKHHTCPCLPNLLCSRFPDGRYRCSMDLKNINF
# B4: Complement C5a: control agonist (protein)
# chain: TLQKKIEEIAAKYKHSVVKKCCYDGACVNNDETCEQRAARISLGPRCIKAFTECCVVASQLRANISHKDMQLGR
# B5: CCL27: control agonist (protein)
# chain: FLLPPSTACCTQLYRKPLSDKLLRKVIQVELQEADGDCHLQAFVLHLAQRSICIHPQNPSLSQWFEHQERKLHGTLPKLNFGMLRKMG
# B6: CCL22: control agonist (protein)
# chain: GPYGANMEDSVCCRDYVRYRLPLRVVKHFYWTSDSCPRPGVVLLTFRDKEICADPRVPWVKMILNKLSQ
# B7: CCL1: control agonist (protein)
# chain: KSMQVPFSRCCFSFAEQEIPLRAILCYRNTSSICSNEGLIFKLKRGKEACALDTVGWVQRHRKMLRHCPSKRK
# B8: CCL25: control agonist (protein)
# chain: QGVFEDCCLAYHYPIGWAVLRRAWTYRIQEVSGSCNLPAAIFYLPKRHRKVCGNPKSREVQRAMKLLDARNKVFAKLHHNTQTFQAGPHAVKKLSSGNSKLSSSKFSNPISSSKRNVSLLISANSGL
# B9: CXCL16: control agonist (protein)
# chain: NEGSVTGSCYCGKRISSDSPPSVQFMNRLRKHLRAYHRCLYYTRFQLLSWSVCGGNKDPWVQELMSCLDLKECGHAYSGIVAHQKHLLP
# What was measured:
# [1] = Food intake and meal pattern after central injection in rats; format: in vivo, rat; settings: for food intake: 4th ventricle injection
# Description: Rats were exposed to kaolin for at least 5 days prior to measuring kaolin consumption in pica testing. Except for studies conducted in the BioDaq, for all feeding studies rats were housed in hanging wire cages to allow for accurate measurement of food spillage.
# For cannula implantation, rats were anesthetized by intraperitoneal injection of a mixture containing ketamine (90 mg/kg, Butler Animal Health Supply), xylazine (2.7 mg/kg, Anased), and acepromazine (0.64 mg/kg, Butler Animal Health Supply) (KAX) and then placed into a stereotaxic apparatus. Each rat was stereotaxically implanted with a guide cannula (26-ga, Plastics One) aimed at the fourth ventricle (guide cannula coordinates: on midline, 2.5 mm anterior to occipital suture, 5.2 mm ventral to skull; internal cannula aimed 7.2 mm ventral to skull) or the lateral ventricle (guide cannula coordinates: 1.5 mm lateral to midline, 0.9 mm posterior to bregma, 1.8 mm ventral to skull; internal cannula aimed 3.8 mm ventral to skull). For all cannulas, dummies (no projection beyond guide) were inserted in the guide cannula and left until infusions were performed. For all surgeries, rats received post-operative temperature support and analgesia was provided immediately following surgery and for two post-operative days (2 mg/kg meloxicam).
# [2] = 24 h body weight change in rats; format: in vivo, rat; settings: 4th ventricle injection
# RXFP3 = molecular target: T1, RXFP3; experiment: Arrestin agonist mode; format: cell-based; settings: read-out: RC50 (the source's name)
# [3] = Insulin tolerance test after 4th ventricle ODN; format: in vivo, rat; settings: 4th ventricle pretreatment then ODN 200 μg/2 μL; chow rats
# relaxin-3 receptor = molecular target: T2, relaxin-3 receptor; experiment: Central ODN antagonizes relaxin-3 induced hyperphagia; format: in vivo; settings: injection into the nucleus incertus; rats
# Description: Rats were stereotaxically implanted with a bilateral guide cannula (26-ga, Plastics One) aimed at the nucleus incertus (guide cannula coordinates: ±0.5 lateral to midline, 9.5 mm […] to bregma, 5.8 mm ventral to skull; internal cannula aimed 7.8 mm ventral to skull). Recombinant human relaxin-3 was purchased (130-10, PreproTech Inc.) and ODN was synthesized by the Doyle laboratory. […] 24 h food intake was recorded in a Biodaq system (Research Diets, Inc).
# PROKR1 = PROKR1 (Homo sapiens, UniProt Q8TCW9); experiment: Arrestin agonist mode; format: cell-based; settings: read-out: RC50 (the source's name)
# PROKR2 = PROKR2 (Homo sapiens, UniProt Q8NFJ6); experiment: Arrestin agonist mode; format: cell-based; settings: read-out: RC50 (the source's name)
# C5aR1 = molecular target: T3, C5aR1; experiment: Arrestin agonist mode; format: cell-based; settings: read-out: RC50 (the source's name)
# C5L2 = C5L2 (Homo sapiens, UniProt Q9P296); experiment: Arrestin agonist mode; format: cell-based; settings: read-out: RC50 (the source's name)
# CCR10 = molecular target: T4, CCR10; experiment: Arrestin agonist mode; format: cell-based; settings: read-out: RC50 (the source's name)
# CCR4 = molecular target: T5, CCR4; experiment: Arrestin agonist mode; format: cell-based; settings: read-out: RC50 (the source's name)
# CCR8 = CCR8 (Homo sapiens, UniProt P51685); experiment: Arrestin agonist mode; format: cell-based; settings: read-out: RC50 (the source's name)
# CCR9 = molecular target: T6, CCR9; experiment: Arrestin agonist mode; format: cell-based; settings: read-out: RC50 (the source's name)
# CXCR6 = CXCR6 (Homo sapiens, UniProt O00574); experiment: Arrestin agonist mode; format: cell-based; settings: read-out: RC50 (the source's name)
# [4] = 4th ventricle, chow-maintained rats
# Sequence of C5L2 (Q9P296 whole entry): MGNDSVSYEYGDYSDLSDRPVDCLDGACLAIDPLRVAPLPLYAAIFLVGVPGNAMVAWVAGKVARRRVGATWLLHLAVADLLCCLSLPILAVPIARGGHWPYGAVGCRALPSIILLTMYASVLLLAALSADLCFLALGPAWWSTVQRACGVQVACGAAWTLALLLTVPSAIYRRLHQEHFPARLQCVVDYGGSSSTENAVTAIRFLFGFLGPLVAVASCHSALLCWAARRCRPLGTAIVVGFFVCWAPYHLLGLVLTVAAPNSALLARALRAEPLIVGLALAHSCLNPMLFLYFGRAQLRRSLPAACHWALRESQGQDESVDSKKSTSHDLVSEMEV
# Sequence of PROKR1 (Q8TCW9 whole entry): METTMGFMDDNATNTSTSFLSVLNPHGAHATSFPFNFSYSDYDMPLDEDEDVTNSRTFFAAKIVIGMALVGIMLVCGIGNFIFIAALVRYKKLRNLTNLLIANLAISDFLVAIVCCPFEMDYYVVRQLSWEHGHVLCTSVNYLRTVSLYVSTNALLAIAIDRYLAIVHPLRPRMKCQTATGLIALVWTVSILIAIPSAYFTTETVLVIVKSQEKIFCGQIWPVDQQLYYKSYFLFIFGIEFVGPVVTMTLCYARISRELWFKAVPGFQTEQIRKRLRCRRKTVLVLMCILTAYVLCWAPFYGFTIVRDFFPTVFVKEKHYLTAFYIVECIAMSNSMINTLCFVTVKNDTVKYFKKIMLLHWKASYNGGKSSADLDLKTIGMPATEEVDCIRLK
# Sequence of PROKR2 (Q8NFJ6 whole entry): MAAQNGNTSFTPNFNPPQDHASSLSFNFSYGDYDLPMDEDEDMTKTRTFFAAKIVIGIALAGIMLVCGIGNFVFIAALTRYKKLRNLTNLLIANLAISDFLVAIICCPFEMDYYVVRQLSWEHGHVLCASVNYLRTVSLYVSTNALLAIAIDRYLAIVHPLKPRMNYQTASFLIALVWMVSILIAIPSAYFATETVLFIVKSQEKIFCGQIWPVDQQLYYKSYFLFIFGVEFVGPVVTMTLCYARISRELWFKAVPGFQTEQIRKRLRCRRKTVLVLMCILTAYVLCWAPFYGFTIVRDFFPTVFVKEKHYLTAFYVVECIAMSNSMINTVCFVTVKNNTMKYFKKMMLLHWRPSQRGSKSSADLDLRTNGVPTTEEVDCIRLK
# Sequence of CXCR6 (O00574 whole entry): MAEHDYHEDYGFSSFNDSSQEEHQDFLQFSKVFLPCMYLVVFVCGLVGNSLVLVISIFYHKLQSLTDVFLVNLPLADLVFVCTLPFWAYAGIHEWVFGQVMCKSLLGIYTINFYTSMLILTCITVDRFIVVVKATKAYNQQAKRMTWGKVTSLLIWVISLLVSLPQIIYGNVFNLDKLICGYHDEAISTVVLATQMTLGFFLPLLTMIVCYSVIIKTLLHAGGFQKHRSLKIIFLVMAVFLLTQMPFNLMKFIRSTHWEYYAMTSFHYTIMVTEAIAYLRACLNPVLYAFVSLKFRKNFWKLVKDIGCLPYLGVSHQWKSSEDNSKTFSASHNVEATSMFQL
molecule,measurement,setting,value
B1,food intake,[1]; HFD-maintained rats,not high-fat diet (HFD) rats
same,food intake,"[1]; HFD-maintained rats, listed as DBI",did not decrease food intake in HFD-maintained rats
same,food intake,[1]; chow-maintained rats,suppresses food intake in chow fed rats; also recorded: hypophagic in chow
same,food intake,"[1]; chow-maintained rats, listed as DBI","significantly reduced food intake at 4, 5, and 7-24 hours post injection; also recorded: decreased food intake at 4, 5, and 7-24 hours post injection"
same,number of bouts,[1]; [4],decreased the number of bouts at 8 and 21 hours post injection
same,number of meals,[1]; [4],decreased the number of meals at 8-10 and 12-21 hours post injection
same,time spent in bouts,[1]; [4],did not alter the time spent in bouts
same,time spent in meals,[1]; [4],decreased the time spent in meals 8-24 hours post injection
same,24 h body weight change,[2]; HFD-maintained rats,not significantly decreased
same,24 h body weight change,[2]; chow-maintained rats,not significantly decreased
B2,EC50,RXFP3,11.9 nM
same,effect of pretreatment on ODN improvement in insulin tolerance,[3],block hindbrain ODN improvements in insulin tolerance
same,24-hour food intake and body weight,relaxin-3 receptor,increased 24-hour food intake and body weight
B3,EC50,PROKR1,17.7 nM
same,EC50,PROKR2,10.6 nM
B4,EC50,C5aR1,1.38 nM
same,EC50,C5L2,1.57 nM
B5,EC50,CCR10,26.3 nM
B6,EC50,CCR4,3.44 nM
B7,EC50,CCR8,45.8 nM
B8,EC50,CCR9,173 nM
B9,EC50,CXCR6,6.81 nM
